From patent US20220025008A1 (FAPON BIOTECH, published 2022)

B1: Mutation 1-43 (antibody)
heavy: QVRLQESGPSQVKPAQTLSLTCAISGFSVTTYYLDWVRHTPGKPPEWLAQMTKDGNAVHQPTVRSRLSITRDTSKSQVFLKLTGVTTEDTAVYYCVRGIIDFGPGLLVTVSSASTTPPKVYPLTSCCGDTSSSIVTLGCLVSSYMPEPVTVTWNSGALTSGVHTFPAILQSSGLYSLSSVVTVPASTSGAQTFICNVAHPASSTKVDKRVEPGCPDPCKHCRCPPPELPGGPSVFIFPPKPKDTLTISGTPEVTCVVVDVGQDDPEVQFSWFVDNVEVRTARTKPREEQFNSTFRVVSALPIQHQDWTGGKEFKCKVHNEGLPAPIVRTISRTKGQAREPQVYVLAPPQEELSKSTLSVTCLVTGFYPDYIAVEWQKNGQPESEDKYGTTTSQLDADGSYFLYSRLRVDKNSWQEGDTYACVVMHEALHNHYTQKSISKPPGK
light: QAVLTQPSSVSRSLGQTVSITCSGSSDNVGFGDYLNWFQLIPGSAPKTLIFGASSRLRGVPDRFSGSRSGNTATLTINSLQAEDEADYYCGSANSRGGYVFGSGTRLTVLSQPKSAPSVTLFPPSKEELDTNKATVVCLISDFYPGSVNVVWKADGSTINQNVKTTQASKQSNSKYAASSYLTLTGSEWKSKSSYTCEVTHEGSTVTKTVKPSECS
B2: Mutation 1-44 (antibody, V domains shown)
VH: QVRLQESGPSQVKPAQTLSLTCAISGFSVTTYYVDWVRHTPGKPPEWLAQMTKDGNAVHNPTLRSRLSITRDTSKSQVFLKLTGVTTEDTAVYYCVRGLIDWGPGLLVTVSS
VL: QAVLTQPSSVSRSLGQTVSITCSGSSDNVGFGDYVNWFQLIPGSAPKTLIFGASSRVRGVPDRFSGSRSGNTATLTINSLQAEDEADYYCGSANSRNYVFGSGTRLTVLS
B3: Mutation 1-45 (antibody)
heavy: QVRLQESGPSQVKPAQTLSLTCAISGFSITTYYIDWVRHTPGKPPEWLAQMTKDGNAVHQPTLRSRLSITRDTSKSQVFLKLTGVTTEDTAVYYCVRGLIDFGPGLLVTVSSASTTPPKVYPLTSCCGDTSSSIVTLGCLVSSYMPEPVTVTWNSGALTSGVHTFPAILQSSGLYSLSSVVTVPASTSGAQTFICNVAHPASSTKVDKRVEPGCPDPCKHCRCPPPELPGGPSVFIFPPKPKDTLTISGTPEVTCVVVDVGQDDPEVQFSWFVDNVEVRTARTKPREEQFNSTFRVVSALPIQHQDWTGGKEFKCKVHNEGLPAPIVRTISRTKGQAREPQVYVLAPPQEELSKSTLSVTCLVTGFYPDYIAVEWQKNGQPESEDKYGTTTSQLDADGSYFLYSRLRVDKNSWQEGDTYACVVMHEALHNHYTQKSISKPPGK
light: QAVLTQPSSVSRSLGQTVSITCSGSSDQVGFGDYINWFQLIPGSAPKTLIFGASSRIRGVPDRFSGSRSGNTATLTINSLQAEDEADYYCGSPNSRGGYVFGSGTRLTVLSQPKSAPSVTLFPPSKEELDTNKATVVCLISDFYPGSVNVVWKADGSTINQNVKTTQASKQSNSKYAASSYLTLTGSEWKSKSSYTCEVTHEGSTVTKTVKPSECS
B4: Mutation 1-46 (antibody, V domains shown)
VH: QVRLQESGPSQVKPAQTLSLTCAISGFSITTYYLDWVRHTPGKPPEWLAQMTKDGNAVHNPTIRSRLSITRDTSKSQVFLKLTGVTTEDTAVYYCVRGVIDWGPGLLVTVSS
VL: QAVLTQPSSVSRSLGQTVSITCSGSSDQVGFGDYLNWFQLIPGSAPKTLIFGASSRLRGVPDRFSGSRSGNTATLTINSLQAEDEADYYCGSPNSRGGYVFGSGTRLTVLS

The binders below were run against T1, Recombinant NT antigen (N-terminal pro-brain natriuretic peptide, NT-proBNP) (human, UniProt P16860 27-102) (assay: indirect ELISA, KD calculated from half-max OD at 4 coating concentrations).
T1 construct: domain: N-terminal pro-brain natriuretic peptide (NT-proBNP); also called recombinant NT protein; N-terminal pro-B-type natriuretic peptide
T1 sequence (looked up): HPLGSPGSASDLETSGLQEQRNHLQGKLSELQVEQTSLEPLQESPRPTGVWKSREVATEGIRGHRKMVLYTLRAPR
In short: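 Plates coated overnight at 4 °C with recombinant NT antigen at 3, 1.5, 0.75 or 0.375 μg/ml, blocked with 20% BSA. Antibody, 2-fold dilutions from 1000 to 0.977 ng/ml, was incubated 30 min at 37 °C, then detected with HRP anti-IgG, OD450/630. KD was derived from half-max OD across coating levels.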
Work on B1 yielded a Kd of 2.93 nM. B2 gave a Kd of 1.26 nM. With B3 the Kd was 1.53 nM. B4 was tested, and the Kd was 3.49 nM.
